Experimental data as given in a protein production outcome set (Wang et al. 2014).

Assay: label from the status in PepcDB records
In the case of “MKKTTLFVLGLLFNSFLNAVDGISKTDLSSLNLAEDSAPLNHPNAQKLSLKNAWTRVLSNHEGLHAQEYAIKRASKMKLAAKLSFLPQIDLSAFYVYLSNPIKMDFASQKQPGVQKATNQIHQGIQNIQQNIPSQVLTPQIQAGMQGVMQGFGALSSTLEAPLLFSKQNVVIGALSIIYPLYMGGARFTMVRIADLMQKDANEVYRLKKLSTFQELVSVYYGMVLNAEVAETLEEVEKGHYKHFQNALKMQKVGQIARVETLGAQVAYDKAHIASVKAKDVLEVSQLSFNSILSSKDDLVPSSKLEIRTEKNLPDLSFFVSSTLNSYPVLKTLENQIQISKENTKLQIAKFLPQVSFFGSYIMKQNNSVFEDMIPSWFVGVAGRMPILSPTGRIQKYQASKLAELQVSSEQIQAKKNMELLVNKTYKETLSYLKEYKSLLSSVELAKENLKLQEQAFLQGLSTNAQVIDARNTLSSIVVEQKSVAYKYIVSLANLMALSDHIDLFYEFVY”, the protein production is reported as “failed”. For “MKKTWKVFLTLVTALVAVVLVACGQGTASKDNKEAELKKVDFILDWTPNTNHTGLYVAKEKGYFKEAGVDVDLKLPPEESSSDLVINGKAPFAVYFQDYMAKKLEKGAGITAVAAIVEHNTSGIISRKSDNVSSPKDLVGKKYGTWNDPTELAMLKTLVESQGGDFEKVEKVPNNDSNSITPIANGVFDTAWIYYGWDGILAKSQGVDANFMYLKDYVKEFDYYSPVIIANNDYLKDNKEEARKVIQAIKKGYQYAMEHPEEAADILIKNAPELKEKRDFVIESQKYLSKEYASDKEKWGQFDAARWNAFYKWDKENGILKEDLTDKGFTNEFVK”, the protein production was “failed”. For “MKKVILLGATSNISKYLIPRLLAKNDVELTLFARQATRRLHQYAAQSQVTLTNGNWNNSADLTAAIAGQDIVYLATGHFTTANQNVVDAMKQNGVERLIVAGGLGIYDEVAGKFGIWNAQMMGDYTEIKRAAAVIDNSGLNYTFLRMAWLYNNDQHTDYKVIPQGMPFKDTQVTRQAVADLITEIIHNPQLYQRSSIGVAEPNTAWNKPGFY”, the protein production was “failed”. With “MKKVLILFAHPRMEKSRANTTLLKHIPSAENITFHDLYELYPDFNIDVEAEKQLLLLHDIIIWQHPFYWYSCPPLMKQWIDMVLEFGWAYGPGGTALKDKIIFNAITTGGANATYNAGGHNRFTMQEYLRPFEQTAHLCKMIYFPPFLVQGSHRLTDEELQRFSQQYVILLTKMSQGNFEEAHMKDITFLNEICVKPR” the protein production was “failed”. For “MKKWWMLTICIVFIVAAVVPVRAAAASHPLFANVIVVFQQQVDEQAVKTLHGNVTKRFEVIPAVAATLPVTAVELLRRWPGVDYVQQDTTVAIDGQITDWGVEKVKAPVMHTHGVTGKGVKIAILDTGVDLKHPDLRVVGGACVLSYCPNSYQDDNGHGTHVAGIIAAKDNDIGTVGVAPNASIYAVKVLDRYGEGNVSDILSGIEWAMKHRVDIINLSLAAPEDAPALKAAIRKAYESGILVVAAAGNNGYANGTGDTVEYPAKYDSAIAVSAVNKENVRLPYSATGPAIEVAAPGEGVYSTVPVALDGDGRRDGYTHMSGTSMAAPFVTGVLALYKQQYPERTNIELRQMLRDRALDLGTPGRDPWYGYGLVRAVSNQPPELKVKLLSVKKGEVAFSVTLSGSAVKGYRVYRNGKQIETLQTAGTYTDYVVKGTYQYEFASIRNDGAESALTAPITVNVPDPYYKDVSASAWYMPEIAYLSSRGIVSGYNNGTIQPYNTITRAEVAVMLGRALHLDATKRATVFRDVASSDFASGYIQSAYERGLINGYPDGTFRPQQPITRAETAIILSRAYPLPGGSSMMFKDVTARVTGHEAIAKLAAARIAEGYPDGTFRPYQFVKRLEFFVFTARADNERFR”, the protein production was “failed”. For “MKKYFITIMILLFGTLILAACQNSDEADNYEPPKVDLKDQIPIILIHGSGGNASSLDKMADQLMNEYRSSNEALTMTVNSEGKIKFEGKLTKDAKRPIIKFGFEQNQATPDDWSKWLKIAMEDLKSRYGFTQMDGVGHSNGGLALTYYAEDYAGDKTVPTLRKLVAIGSPFNDLDPNDNGMDLSFKKLPNSTPQMDYFIKNQTEVSPDLEVLAIAGELSEDNPTDGIVPTISSLATRLFMPGSAKAYIEDIQVGEDAVHQTLHETPKSIEKTYWFLEKFKTDETVIQLDYK”, the protein production was “failed”. For “MKKYLAGLAAVSVAGGAAPTLDSVQAAPEQNTQKAATTVQASASNNSSYTVNTSVLHVRAGSSTSHDIISRVYNGQSLNVIGEENGWFKININGKTGFVSGEFVSKSGAANNNVSTGGNNKVTADVLRVRTAPNTSSSVSGRVYAGQTLNVIGQENGWVKINHNGQVGYVSGEFVSGVSSNGGSSNNNTNNNNQEVKPASGNYTVNVSSLRVRTGPSTSHTTVGSVKKGQVVQVVGEVQDWFKINYAGQTAYISKDYVTKGGSNENVTEGNKQEQNNNGTIQTGGSYVVNATSLRVRTGPAAYHSVIGGVLNGTTLNVVGSENGWFKVNYQGKTGFVSSEFVKFVKGGTTTPEQPKQPEKPNQGTIGDYYINASALNVRSGEGTNYRIIGALPQGQKVQVISENSGWSKINYNGQTGYIGTRYLSKTPVGGAVDNKPNNNQNNNQNNNNNNNTGNNSGDSSSVLAYAKSMQGVPYVWGGTSANGVDCSGYIYHVFKKFGHNISRQSVAGYWSSLPKTSSPQPGDLIYFQNTYKSGPSHMGIYLGGGSFIQAGDKGVAIASLSNSYWKSHFLGYTKAP”, the protein production was “failed”. For “MKLAEALILRADLQKELMSLKNRINQNLLVQEGEKPSENPYTLYDEILLKVSELEGLILKINKTNSNYITSNNESISDLIVKRDMLGKKISILKEIAEEATVKVNRYSQTEIKIFSAMKVDQLQREINKYSKEYRELDTKLQGLNWTIDLME”, the protein production was “failed”. For “MKLAIIIPVYNAEETIKRAILSVDTSVPYEIICINDGSTDQTQHVLTELQQKHPHIKVIHQSNQGAARSRNVGLEAMSEDVDAFLFLDADDEFLPSRIDLMVNAFNKNKETDVVIGQMARDVNGEWQVISTHQSMVKDAIVTLDRKPDILQSIGPGAKLFSSKYAGLRFDEDVVFCEEHTFIVKAFSKARDIQLIPNIVYGYNEREGSVTAQRADTFLPYMSDALKVRQRVMELLLLLDEKIYYSYRMDNLIVSYLIQAHLKKNNKITQSLLESVIEYMKAMQHTHYSGEAMFRIVRAVEQSATHWTKPLYLQWKKALSEVGIGRPGLIRFKLQVIPKKISFSGKESLKRIFKK”, the protein production was “failed”. With “MKLALFDLDHTLLNTDSDHSWGEFLVNEGLVDPVHHRQMNDKFYEDYKAGQLDPIAYNEFVFEFLTQNTPEVLTDLHALFMQKVIRPQMRPKGFDGIKKHQNLGHDIVGITATSDFITAPIFRAFGITEIIATNAEVQDGKYTGKVAGLPCYQKGKLARLDQWLAGRSVEESWAYSDSINDRFLLEYATHAIAVNPDDRLEKLAIDQGWTIEDWSI” the protein production was “failed”. With “MKLDLARKRPSLLARLWLRLGALLGRTLLLLLVIGLLGWALSSAWFAWHHRGPVAVQEQVPADEAARTQDIIQTAVRIVDQHREGTRYLRDAHAKAHGCVKAQVQVLNDLSPPLRQGVFATPGQTWQAVVRLSNGNAYPQFDSIRDARGMAIKLLDVPGQQLMASESQRREQDFVMFNHPNFFVSDVAEYQQNIAAQADGKKVGAFFPGWDPRTWQVRHLFIALATLSPAPASPTQTTYYSVSPYKFGNANAKFRVMPDPESCPAYSLPAQNQDLPNFLRSALTQQLSTDRVGACFVLQVQRQDPNRFMPIEDTSIEWKESDAPFETVARVTLPAQDFDTPAQNLACDNQSFNPWFGLEAHRPIGGINRLRKAVYEAVSDYRHSRNAEQ” the protein production was “failed”. In the case of “MKLENQSETTANIQLNAPELVEANIAEVTSITIEKFLGSFTSVTRLLLNLSPLKNFHKDGLVSGKWNEPKDVPECLLSQLETFVWRRLDWGREEEKEIATYILKNGRRLKKETFTTNPIESEGLNKLKERLKVLNGLDGVQAPLFRKDGVVVGKWNQPKNVPQCLLSHLETFVWTRYRWEREEEKEEATYILKNARLLSKATFSTNIIDLKEFHWFKK”, the protein production is reported as “failed”. With “MKLFKRISFILIVLYILIVPVQHVSAHAYLENSNPADQSHIKTAPEKVTLVFNEEIEADFPLIEVKDSSGKRVETGKTSVSKKNNHMVEASLPAELKADVYSVSWRVVSADGHAVTGIISFKLGDTKATFQESEVPSSGADLQISSIQKAILYIGFSLFIGVLVFGLGLYPRKEQISEKISGRLKKVTWIALALLGVALFMQLFVQTSITTGVSISESFGPSKLAAFLTTKTGYIWISEFIVWLLLAIFTIMMFFKNKQWSWFALLTESALIGYLIFAKAQNGHAAASADKIVSITADMLHMIAASVWVGGILVLLFVLPKTGKAREIWSRFAIVAIIAVASILVSGLLMAVMNIGQMSNLFTTNYGKILLFKIGLFLLMALLGLGHYIYLKLKNKKLPFKTILIELIIGTIILIVASVLTNVQTPPPPAPKAFDETIAAKGENAKINLRVEPATVGQNQFIITFTSADGATKTDFEQVTITTKSTKTDEKATFQAKLANENQYFAEGLYINQTGKWEITVHGLTKDFTDINQTFTTNITQ” the protein production was “failed”. For “MKLGFIGFGEAASAIASGLRQAGAIDMAAYDAASAESWRPRAEELGVSCKASVAEVAGECDVIFSLVTAQAALEVAQQAGPHLCEGALYADFTSCSPAVKRAIGDVISRHRPSAQYAAVAVMSAVKPHGHRVPLVVDGDGARRFQAAFTLYGCRIEVLDGEVGGAALLKMCRSAVLKGLEALFLEALAAAEKMGLADRVLASLDASFPEHHLRDLALYLVERNLEHADRRAHELGEVAATLCSVGVEPLVAEAGYRRLTRVAQVRAALKQRPGDVRAWLRSLANAEDA”, the protein production was “not failed”. With “MKLGKAQSLEDVAGLVGACAVTILAVIIISALYVGREVFVPVALAILLSFVLARPVNFLQSLRVPRAIAAISTVLFAFAVIFALGSLIATQLSRLADDLPQYQSTIQSKITSLRGVTGGSTTLERAEGMLQNLSKELNKPKNAPAPSLSNPPTSSSRPVTPVPVEVLQPDPGTLANLRSLIAPLISPLATTGIIVIFVIFILLQREDLRNRLIRLAGTRDLQRTTAALDDAASRLSRLFLNQLLINSGFGVLIGTGLWIIGVPSPALWGILAAVLRFVPYIGSIISAAFPLTLAVAVDPGWSMLVWTAILFFVIEPAIAHVVEPMVYGRSTGLSPVAVVISATFWTALWGPIGLVLATPLTVCLVVLGRHVERLAFLDVMFGDRPALSPPEIFYQRMLAGDPAEAAEKAEQFLKERSLSSYYDDVALKGLQLAQADLDRDALDAVRLTRIKETVQEFTEDLTDEIDQAPDGDEATTDAEAAAAVEVTPVDHADDDIAVLKPADLKPGWQGAAPVMCIGGRSQLDEAAALMLAHLCRVHGIGARVEPSSALSTKNIFGLDVSNVALICLSYLEASNTTHIRYAVRRLRRKAPHAKIIVALWSAETPQLADTNESAQADATVLTLRDAVKYCVEEAIIEPPPQTIEMPVISEAV” the protein production was “failed”. In the case of “MKLGYSLSKSNAKNFKFYINGSAMGYKNIIINGAKSWNASPYLNTVSKGRDANPHFIISSSTIDRGATVAVCETWAYKGSKLVAKNEITTFKAFRSLSVGDKTETIAHEFGHGLGLGHVKTKNAIMLDVGFTKKIKPQRDDLNGIKAIYKLEHHHHHH”, the protein production is reported as “failed”. In the case of “MKLHLEIWRQAGPNSEGHFEPIDVNDAVPQMSVLELLDHVNTGLIEEGKEPFVFASDCREGICGTCGLLVNGRPHGLDKNKPSCQQRLDHVPDGSTLKIEPLRSAAYPVVKDLLVDRSALDRVLEKGGFVSINAGTAPDADTLHQNHESAELALDH”, the protein production is reported as “failed”. For “MKLIAAGLTLIFLGFILLFLGVVLQVQTPQTTTSSSPQFAGLVLLGPIPIAFGNVPPSVLSNLIIVGVVFTIIMLIIYLIMFIIGRKTTRAPF”, the protein production was “failed”. With “MKLIGITGMPGSGKSAITKLAEKYKIVVVSMGDVVRYETLKQGMPLNPENVGNTAVKLREIYGKEAIAVPCLNYVNEKYNNEDFVIIEGIRSIYEVNYIKKHAELDIIAIHSSPKTRFERLSGRNREDDSNDWNTFVERDERELNFSIGRVISLADYMVVNEGNYMDFVNDLENTFKKIINVN” the protein production was “not failed”. For “MKLIIAIVQDKDSNRLSSQFIEANVRATKLSTTGGFLRSGNTTFMIGIDDDRVDEVLAMIKETSHAREQFMTPPVNLDVTMDGAAAYPVEVQVGGATVFVLPIEQFHQF”, the protein production was “failed”. For “MKLIVAIVRPEKLNEVLEALFQAEVRGLTLSRVQGHGGETERVETYRGTTVKMELHEKVRLEIGVSEPFVKPTVEAILKAARTGEVGDGKIFVLPVEKVYRIRTGEEDEAAVTPVQ”, the protein production was “not failed”.
